Laboratory results published in US20080171343A1 (UNIVERSITY OF MANCHESTER, published 2008).

T1: fibromodulin (bovine, UniProt P13605 19-376, glycosylated (N-linked oligosaccharides including keratan sulphate), as isolated)
T1 construct: Isolated from tissue; coated on microtitre plates at 10 ug/ml; also called FMOD; untreated (glycosylated) FMOD
T1 sequence (looked up): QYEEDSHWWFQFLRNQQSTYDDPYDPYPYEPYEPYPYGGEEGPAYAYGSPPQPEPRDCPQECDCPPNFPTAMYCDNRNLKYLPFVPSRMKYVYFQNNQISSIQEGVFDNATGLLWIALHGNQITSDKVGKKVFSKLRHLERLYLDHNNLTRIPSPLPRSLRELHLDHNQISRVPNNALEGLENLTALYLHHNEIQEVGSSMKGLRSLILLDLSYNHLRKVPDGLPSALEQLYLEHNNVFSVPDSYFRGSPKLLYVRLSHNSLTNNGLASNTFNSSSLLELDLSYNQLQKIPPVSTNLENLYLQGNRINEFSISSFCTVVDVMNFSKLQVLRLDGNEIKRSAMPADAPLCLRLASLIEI

T2: C-reactive protein (UniProt P02741 19-224)
T2 construct: Bought; Coated on microtitre plates at 10 ug/ml; also called CRP; recombinant CRP
T2 sequence (looked up): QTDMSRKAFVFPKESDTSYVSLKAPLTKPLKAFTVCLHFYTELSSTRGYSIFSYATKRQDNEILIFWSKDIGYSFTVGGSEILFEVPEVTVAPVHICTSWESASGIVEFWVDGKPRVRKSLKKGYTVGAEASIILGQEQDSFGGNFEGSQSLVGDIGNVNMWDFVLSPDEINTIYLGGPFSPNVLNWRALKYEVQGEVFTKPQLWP

T3: deglycosylated FMOD (bovine, UniProt P13605 19-376, N-linked oligosaccharides (including keratan sulphate) removed with N-glycosidase F)
T3 construct: The same polypeptide as FMOD, without its N-linked glycans; also called N-glycosidase F-treated FMOD
T3 sequence (looked up): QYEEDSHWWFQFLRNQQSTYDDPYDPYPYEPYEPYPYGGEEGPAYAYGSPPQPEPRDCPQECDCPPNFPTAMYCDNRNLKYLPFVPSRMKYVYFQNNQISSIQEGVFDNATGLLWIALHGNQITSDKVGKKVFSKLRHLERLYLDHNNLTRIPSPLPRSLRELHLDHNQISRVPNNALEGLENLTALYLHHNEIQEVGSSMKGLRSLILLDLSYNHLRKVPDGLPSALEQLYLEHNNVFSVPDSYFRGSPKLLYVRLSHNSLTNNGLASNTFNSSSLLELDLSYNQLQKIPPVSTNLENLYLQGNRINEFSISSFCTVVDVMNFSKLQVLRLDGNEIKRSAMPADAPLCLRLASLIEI

B1: FHCCP6-8(Y384) (other)
chain: GTLKPCDYPDIKHGGLYHENMRRPYFPVAVGKYYSYYCDEHFETPSGSYWDHIHCTQDGWSPAVPCLRKCYFPYLENGYNQNYGRKFVQGKSIDVACHPGYALPKAQTTVTCMENGWSPTPRCIRVKTCSKSSIDIENGFISESQYTYALKEKAKYQCKLGYVTADGETSGSITCGKDGWSAQPTCI
modifications: in some assays biotinylated with EZlink N-hydroxysuccinimide-LC Biotin (sites not given)
notes: Made by site-directed mutagenesis (H384Y) of FHCCP6-8(H384); also called FHCCP68 (Y384 allotype); Y384 variant
B2: FHCCP6-8(H384) (other)
chain: GTLKPCDYPDIKHGGLYHENMRRPYFPVAVGKYYSYYCDEHFETPSGSYWDHIHCTQDGWSPAVPCLRKCYFPYLENGYNQNHGRKFVQGKSIDVACHPGYALPKAQTTVTCMENGWSPTPRCIRVKTCSKSSIDIENGFISESQYTYALKEKAKYQCKLGYVTADGETSGSITCGKDGWSAQPTCI
modifications: in some assays biotinylated with EZlink N-hydroxysuccinimide-LC Biotin (sites not given)
notes: Used unlabelled (detected with a goat polyclonal anti-FH antibody) or biotinylated; also called FHCCP68 (H384 allotype); H384 variant

Columns and labels:
fibromodulin = target: T1, fibromodulin; assay: plate assay: FMOD coated on microtitre wells at 10 ug/ml, biotinylated protein in fluid phase, detection with streptavidin peroxidase kit, A490, background subtracted
Method: FIG. 12: Binding of FHCCP6-8(H384), FHCCP6-8(Y384) and full length FH to FMOD. A. FMOD was coated in microtitre plate wells at a concentration of 10 μg/ml. BSA was used as the negative coating control. FHCCP6-8(H384) and FHCCP6-8(Y384) recombinant proteins or full length FH were incubated in fluid phase and bound protein was detected with a specific polyclonal antibody. B. FMOD was coated in microtitre plate wells as described for A. Biotinylated versions of FHCCP6-8(H384) and FHCCP6-8(Y384) were incubated in the wells and bound protein was detected with a streptavidin peroxidase kit. C. Untreated (glycosylated) and N-glycosidase F-treated FMOD were assessed for binding full length FH in a microtitre plate based binding assay. Bound protein was detected with a specific polyclonal antibody. […]
CRP or FMOD was coated overnight at 4° C. onto microtiter plates (Maxisorp, Nunc) at a concentration of 10 μg/ml in 75 mM sodium carbonate buffer, pH 9.6. […] The amount of bound protein was assessed using a goat polyclonal anti-FH antibody (Quidel, Cat # A312) followed by HRP-labeled anti-goat secondary antibodies (Dako) and the OPD development kit (Dako). Detection of biotinylated protein was performed using a StreptABComplex/HRP-kit from Dako, and in both cases the absorbance at 490 nm was measured to quantify protein binding.

C-reactive protein = target: T2, C-reactive protein; assay: plate assay: CRP coated on microtitre wells (10 ug/ml), unlabelled protein in fluid phase, detection with goat polyclonal anti-FH antibody and HRP secondary, A490, background subtracted
Method: CRP or FMOD was coated overnight at 4° C. onto microtiter plates (Maxisorp, Nunc) at a concentration of 10 μg/ml in 75 mM sodium carbonate buffer, pH 9.6. Wells treated only with coating buffer or 1% (w/v) BSA (Sigma) in coating buffer (for the assays involving FMOD) were used as negative controls. Between each step the wells were washed extensively with 50 mM Tris-HCl, 150 mM NaCl, 0.1% (v/v) Tween 20, pH 7.5. All wells were blocked with 1% (w/v) BSA (Sigma) in phosphate buffered saline (Invitrogen) for 1 hour at 37° C. FHCCP6-8(H384) and FHCCP6-8(Y384) were added at varrying concentrations in the binding buffer (50 mM HEPES, 100 mM NaCl, 2 mM CaCl₂, pH 7.4); full length FH served as a positive control. In the experiments with FMOD, 50 μg/ml BSA was included in the binding buffer. The amount of bound protein was assessed using a goat polyclonal anti-FH antibody (Quidel, Cat # A312) followed by HRP-labeled anti-goat secondary antibodies (Dako) and the OPD development kit (Dako). Detection of biotinylated protein was performed using a StreptABComplex/HRP-kit from Dako, and in both cases the absorbance at 490 nm was measured to quantify protein binding.

deglycosylated FMOD = target: T3, deglycosylated FMOD; assay: microtitre plate assay, deglycosylated against untreated FMOD coated

Binder	binding result (fibromodulin)	EC50 (read off the curve) (C-reactive protein) [µg/mL]	binding result (deglycosylated FMOD)
B1	binds	~1	binds
B2	binds	–	binds
